The record followed here is paper PMC8020832.

Changes are numbered by the printed parent chain. Names may count otherwise.

The target of the assay is 18 Env antigens. Kind of assay: ELISA. (In an ELISA, binding on a coated surface is turned into a signal by an enzyme label.)

B1: 2411a revertant of heavy chain Y33V/M34L (CDR H1) (antibody, V domains shown)
VH: QVQLVQSGAEMKKPGASVRVSCEASGYTFTDYYMHWMRQAPGQGIEWLGWIKPRYGAVNYAHKFQGRVSMTRDTSIDTAYLELINLRSDDTAIYYCARSFDSDYEWWFTYWGQGTLVSVSA
VL: EIVLTQSPGTLSLSPGERATLSCRASYFISRDYLAWYQQRPGQAPKLLIYGTTTRASGIPDRFSGSGSGTDFTLTISRLEPEDFAVYYCQQYEFFGLGTKVEIK
For the molecule B1, the mean fold change in ELISA binding titer (OD450) versus parental 2411a stood at 3.9 fold.

B2: 2411a revertant of heavy chain G56A/T57V (CDR H2) (antibody, V domains shown)
VH: B1 VH with Y33V, M34L, A57G, V58T
VL: B1 VL
Turning to B2, the mean fold change in ELISA binding titer (OD450) versus parental 2411a was 5.5 fold.

B3: 2411a revertant of heavy chain N52K (CDR H2) (antibody, V domains shown)
VH: B1 VH with Y33V, M34L, K52N
VL: B1 VL
Turning to B3, the mean fold change in ELISA binding titer (OD450) versus parental 2411a was determined as 5.4 fold.

B4: 2411a revertant of heavy chain Q61H (CDR H2) (antibody, V domains shown)
VH: B1 VH with Y33V, M34L, H62Q
VL: B1 VL
For B4, the mean fold change in ELISA binding titer (OD450) versus parental 2411a came to 1.4 fold.

B5: 2411a revertant of light chain S27aF (CDR L1) (antibody, V domains shown)
VH: B1 VH with Y33V, M34L
VL: B1 VL with F28S
As for B5, the mean fold change in ELISA binding titer (OD450) versus parental 2411a worked out at 1.6 fold.

B6: 2411a revertant of heavy chain N53R/S54Y (CDR H2) (antibody, V domains shown)
VH: B1 VH with Y33V, M34L, R54N, Y55S
VL: B1 VL
In the case of B6, the mean fold change in ELISA binding titer (OD450) versus parental 2411a amounted to 6.5 fold.

B7: 2411a revertant of light chain Q27Y (CDR L1) (antibody, V domains shown)
VH: B1 VH with Y33V, M34L
VL: B1 VL with Y27Q
Turning to B7, the mean fold change in ELISA binding titer (OD450) versus parental 2411a is 1.8 fold.
